Experimental data as given in patent publication US20140336202.

Biological target: recombinant PP5 (UniProt P53041)
Sequence (P53041 whole entry): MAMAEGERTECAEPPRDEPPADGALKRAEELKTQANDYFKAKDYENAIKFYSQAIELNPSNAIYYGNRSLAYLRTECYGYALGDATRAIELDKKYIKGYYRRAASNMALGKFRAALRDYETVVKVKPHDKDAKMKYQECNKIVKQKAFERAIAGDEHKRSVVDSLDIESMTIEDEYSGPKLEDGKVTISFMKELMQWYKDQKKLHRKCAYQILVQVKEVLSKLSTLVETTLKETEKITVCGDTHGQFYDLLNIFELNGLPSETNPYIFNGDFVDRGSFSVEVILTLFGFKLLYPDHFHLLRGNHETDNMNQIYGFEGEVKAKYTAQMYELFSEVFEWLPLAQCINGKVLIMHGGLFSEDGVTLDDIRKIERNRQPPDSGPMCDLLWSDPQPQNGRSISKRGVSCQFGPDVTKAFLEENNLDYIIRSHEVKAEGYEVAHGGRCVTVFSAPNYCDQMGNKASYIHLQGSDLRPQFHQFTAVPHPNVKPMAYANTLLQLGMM

| Substance | in vitro ubiquitylation of PP5 (immunoblot for PP5) |
| --- | --- |
| recombinant Huwe1 C4341S mutant (Huwe1 C/S) | wild type recombinant Huwe1 protein, but not Huwe1(C/S), ubiquitylated recombinant PP5 in vitro |
| recombinant Huwe1 wild type | in the presence of both E1 and E2, wild type recombinant Huwe1 protein, but not Huwe1(C/S), ubiquitylated recombinant PP5 in vitro |
